{"source": "paper PMC4837482", "about": "“The complex binding mode of the peptide hormone H2 relaxin to its receptor RXFP1” (Nature Communications, 2016)", "assay_in_all_cases": "cAMP activity assay (pCRE β-galactosidase reporter), transfected HEK293T cells", "assay_type_in_all_cases": "cell-based", "key": {"RXFP1 W46A": {"biological_target": "T1, RXFP1 W46A (Homo sapiens, UniProt Q9HBX9, W68A)", "T1 construct": "transiently transfected human embryonic kidney (HEK) 293T cells expressing full-length RXFP1 and mutants; expressed in transfected cells; host or cells: HEK293T", "T1 sequence (Q9HBX9 23-757 W68A limits assumed)": "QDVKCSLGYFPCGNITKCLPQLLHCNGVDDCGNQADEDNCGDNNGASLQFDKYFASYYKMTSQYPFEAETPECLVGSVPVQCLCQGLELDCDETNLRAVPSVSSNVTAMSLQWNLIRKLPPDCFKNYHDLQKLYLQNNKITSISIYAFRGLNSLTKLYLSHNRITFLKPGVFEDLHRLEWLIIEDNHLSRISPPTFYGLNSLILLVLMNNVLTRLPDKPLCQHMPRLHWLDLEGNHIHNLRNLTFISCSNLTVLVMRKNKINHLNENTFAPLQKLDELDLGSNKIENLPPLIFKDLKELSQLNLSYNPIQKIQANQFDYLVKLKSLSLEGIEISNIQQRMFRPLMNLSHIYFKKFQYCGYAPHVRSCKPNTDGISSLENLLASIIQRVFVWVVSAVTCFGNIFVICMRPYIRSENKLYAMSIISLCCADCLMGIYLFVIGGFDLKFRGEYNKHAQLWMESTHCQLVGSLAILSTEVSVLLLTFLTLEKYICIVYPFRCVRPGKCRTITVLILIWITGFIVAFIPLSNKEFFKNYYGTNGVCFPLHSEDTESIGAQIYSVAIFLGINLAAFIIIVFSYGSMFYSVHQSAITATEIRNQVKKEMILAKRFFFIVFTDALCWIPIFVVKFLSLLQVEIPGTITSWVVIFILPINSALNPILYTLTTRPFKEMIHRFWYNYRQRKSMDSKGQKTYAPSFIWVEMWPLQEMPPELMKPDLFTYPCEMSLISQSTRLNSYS", "settings": "construct W46A, ±s.e.m.", "method": "(§1) Media was aspirated and plates stored frozen at −80 °C overnight. […] H2 relaxin dilutions were prepared in minimal media containing 1% DMSO. Positive and negative control stimulations were achieved by incubation with 5 μM Forskolin and minimal media/1% DMSO, respectively. Plates were developed by 10 min of incubation in 25 μl of lysis buffer 1 (100 mM Na2HPO4, pH 8.0, 0.2 mM MgSO4 0.01 mM MnCl2); a further 10 min of incubation in 100 μl of buffer 2 (100 mM Na2HPO4, pH 8.0, 2 mM MgSO4, 0.1 mM MnCl2, 0.5% Triton X-100, 40 mM β-mercaptoethanol); then to each well 25 μl of the β-galactosidase substrate, chlorophenol red-β-D-galactopyranoside (Roche) was added. All incubation steps were conducted with orbital shaking. Color-change was monitored and readings were taken on a Benchmark Plus Microplate Reader (Bio-Rad) at 570 nm. A minimum of three separate experiments were performed, each of them in triplicate, and data were pooled and presented as percentages of the maximum response induced by 5 μM Forskolin±s.e.m."}, "RXFP1 F50A^ins": {"biological_target": "T2, RXFP1 F50A^ins (Homo sapiens, UniProt Q9HBX9, INS72A)", "T2 construct": "transiently transfected human embryonic kidney (HEK) 293T cells expressing full-length RXFP1 and mutants; expressed in transfected cells; host or cells: HEK293T", "T2 sequence (Q9HBX9 with tags, fused parts or gaps INS72A limits assumed)": "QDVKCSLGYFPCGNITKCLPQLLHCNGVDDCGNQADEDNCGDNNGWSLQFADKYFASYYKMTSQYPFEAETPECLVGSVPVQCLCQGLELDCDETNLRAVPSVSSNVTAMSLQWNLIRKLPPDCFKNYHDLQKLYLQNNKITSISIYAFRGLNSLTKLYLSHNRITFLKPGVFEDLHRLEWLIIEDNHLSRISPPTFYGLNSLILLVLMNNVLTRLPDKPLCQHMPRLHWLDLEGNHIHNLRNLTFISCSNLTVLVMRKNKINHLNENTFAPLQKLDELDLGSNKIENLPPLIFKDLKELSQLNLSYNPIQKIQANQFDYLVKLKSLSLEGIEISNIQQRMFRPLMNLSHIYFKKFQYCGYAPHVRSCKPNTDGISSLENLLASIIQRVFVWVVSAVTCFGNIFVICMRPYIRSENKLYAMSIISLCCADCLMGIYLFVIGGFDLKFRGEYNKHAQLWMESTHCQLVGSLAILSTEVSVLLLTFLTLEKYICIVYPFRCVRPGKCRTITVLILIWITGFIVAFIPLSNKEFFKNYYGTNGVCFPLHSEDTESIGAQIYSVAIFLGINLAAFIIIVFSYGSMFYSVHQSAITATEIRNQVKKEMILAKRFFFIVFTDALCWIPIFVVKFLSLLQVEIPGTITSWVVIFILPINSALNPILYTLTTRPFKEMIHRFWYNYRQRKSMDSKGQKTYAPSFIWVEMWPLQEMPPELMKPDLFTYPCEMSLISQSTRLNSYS", "settings": "construct F50A^ins, ±s.e.m.", "method": "as §1"}, "RXFP1 E67A^ins": {"biological_target": "T3, RXFP1 E67A^ins (Homo sapiens, UniProt Q9HBX9, INS89A)", "T3 construct": "transiently transfected human embryonic kidney (HEK) 293T cells expressing full-length RXFP1 and mutants; expressed in transfected cells; host or cells: HEK293T", "T3 sequence (Q9HBX9 with tags, fused parts or gaps INS89A limits assumed)": "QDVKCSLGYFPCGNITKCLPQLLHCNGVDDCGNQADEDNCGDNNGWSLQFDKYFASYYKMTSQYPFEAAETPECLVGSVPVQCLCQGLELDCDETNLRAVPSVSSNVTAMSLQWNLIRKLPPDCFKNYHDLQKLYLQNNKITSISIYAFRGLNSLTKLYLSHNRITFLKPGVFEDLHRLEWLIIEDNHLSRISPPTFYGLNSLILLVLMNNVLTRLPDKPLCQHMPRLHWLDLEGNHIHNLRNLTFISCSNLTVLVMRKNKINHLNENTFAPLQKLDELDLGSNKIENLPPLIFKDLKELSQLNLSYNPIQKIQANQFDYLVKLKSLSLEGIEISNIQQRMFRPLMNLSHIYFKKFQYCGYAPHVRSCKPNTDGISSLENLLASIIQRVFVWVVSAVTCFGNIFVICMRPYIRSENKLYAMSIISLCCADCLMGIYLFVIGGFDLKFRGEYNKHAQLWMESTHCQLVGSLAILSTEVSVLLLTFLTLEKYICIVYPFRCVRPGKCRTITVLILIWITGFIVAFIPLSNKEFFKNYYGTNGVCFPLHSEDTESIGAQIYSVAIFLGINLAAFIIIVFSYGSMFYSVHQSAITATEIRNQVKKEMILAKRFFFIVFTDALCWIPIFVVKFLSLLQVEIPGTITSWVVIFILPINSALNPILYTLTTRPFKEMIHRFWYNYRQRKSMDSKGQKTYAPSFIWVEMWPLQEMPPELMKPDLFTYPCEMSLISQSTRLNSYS", "settings": "construct E67A^ins, ±s.e.m.", "method": "as §1"}, "[1]": {"settings": "percentage of maximum response to 5 μM Forskolin"}}}
{"substance": "H2 relaxin: two-chain 6-kDa peptide hormone structurally related to insulin; recombinant human gene-2 H2 relaxin provided by Corthera", "values": [{"measurement": "H2 relaxin pEC50", "setting": "RXFP1 W46A; cAMP reporter", "value": "7.02±0.18 (3)"}, {"measurement": "H2 relaxin Emax", "setting": "RXFP1 W46A; [1]", "value": "109.6±13.69 (3) %"}, {"measurement": "H2 relaxin pEC50", "setting": "RXFP1 F50A^ins; cAMP reporter", "value": "9.41±0.13 (3)"}, {"measurement": "H2 relaxin Emax", "setting": "RXFP1 F50A^ins; [1]", "value": "93.62±5.34 (3) %"}, {"measurement": "H2 relaxin pEC50", "setting": "RXFP1 E67A^ins; cAMP reporter", "value": "11.32±0.04 (3)"}, {"measurement": "H2 relaxin Emax", "setting": "RXFP1 E67A^ins; [1]", "value": "110.15±6.43(3) %"}]}
